For this data set, the target named is T1, PTK7 (receptor on HCT116 cells) (human (HCT116 colon cancer cells)) (UniProt Q13308).
T1 sequence: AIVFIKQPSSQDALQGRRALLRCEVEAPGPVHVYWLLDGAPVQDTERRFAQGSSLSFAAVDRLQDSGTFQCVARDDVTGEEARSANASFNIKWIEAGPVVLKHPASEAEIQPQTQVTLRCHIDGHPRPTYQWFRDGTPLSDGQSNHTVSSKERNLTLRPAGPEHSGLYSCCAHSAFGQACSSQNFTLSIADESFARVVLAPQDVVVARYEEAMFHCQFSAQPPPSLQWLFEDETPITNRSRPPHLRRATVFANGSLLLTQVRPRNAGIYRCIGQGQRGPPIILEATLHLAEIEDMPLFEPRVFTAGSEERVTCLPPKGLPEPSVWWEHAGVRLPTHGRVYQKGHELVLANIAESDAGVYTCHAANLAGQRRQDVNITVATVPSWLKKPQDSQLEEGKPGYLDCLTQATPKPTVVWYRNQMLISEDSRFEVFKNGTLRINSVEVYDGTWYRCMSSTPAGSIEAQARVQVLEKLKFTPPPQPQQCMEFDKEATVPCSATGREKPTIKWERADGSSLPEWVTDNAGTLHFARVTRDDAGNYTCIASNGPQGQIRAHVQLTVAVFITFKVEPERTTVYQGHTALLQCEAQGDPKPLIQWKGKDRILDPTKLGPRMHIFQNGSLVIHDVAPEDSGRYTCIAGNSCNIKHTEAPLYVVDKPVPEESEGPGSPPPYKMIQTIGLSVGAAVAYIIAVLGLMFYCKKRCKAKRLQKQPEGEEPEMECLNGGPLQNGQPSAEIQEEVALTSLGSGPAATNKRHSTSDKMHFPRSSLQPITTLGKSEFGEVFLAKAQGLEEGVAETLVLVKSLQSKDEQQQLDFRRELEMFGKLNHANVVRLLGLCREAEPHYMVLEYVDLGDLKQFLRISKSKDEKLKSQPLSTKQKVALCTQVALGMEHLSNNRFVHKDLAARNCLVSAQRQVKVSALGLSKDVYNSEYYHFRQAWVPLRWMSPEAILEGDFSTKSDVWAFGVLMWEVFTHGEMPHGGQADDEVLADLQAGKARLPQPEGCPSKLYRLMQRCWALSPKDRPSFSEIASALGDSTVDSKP
Description: flow cytometry. Particulars: 250 nM aptamer (varied for Kd), 30 min at 4 C, DPBS with ~5 mM MgCl2, 0.1 mg/mL yeast tRNA, 1 mg/mL BSA (a 2.25 g additive in the wash buffer is …).

The term Kd denotes the constant that tells how readily two partners part at equilibrium. Low readings indicate higher affinity, high ones lower affinity. In turn, “ATCTAACTGCTGCGCCGCCGGGAAAATACTGTACGGTTAGA [Sgc8-23A]” yielded a Kd (A23 = cordycepin (3'-deoxyadenosine), 2'-5' linkage) of 6.3 nM. In other words, the single-digit nanomolar range. On to “ATCTAACTGCTGCGCCGCCGGGAAAATACTGTACGGTTAGA [Sgc8c (Sgc8-Cy5)]”, for which the Kd was determined as 5.92 nM.
